From the Human Domainome abundance scans (Beltran et al. 2025)
± gives the uncertainty stated by the source.

B1: Zinc finger homeobox protein 4, residues 2562 to 2617; numbered along this chain, Q86UP3 (parent)
chain: RLRTTITPEQLEILYEKYLLDSNPTRKMLDHIAREVGLKKRVVQVWFQNTRARERK

Variants of: B1
Experiment: abundance fitness (aPCA) (normalised: wild type 0, dead -1); higher = more abundant; growth selection in yeast, the domain comes from the species named
Conditions: Homo sapiens

Abundance fitness of substitutions, site by site:
L2: A -0.059 ± 0.065; F 0.066 ± 0.063; E 0.429 ± 0.079; Q -0.603 ± 0.2; V -0.023 ± 0.061; N 0.309 ± 0.09; I -0.115 ± 0.14
K17: A -0.289 ± 0.2; E -0.081 ± 0.28; G -0.513 ± 0.2
T5: I 0.057 ± 0.17; G -0.132 ± 0.097; V 0.025 ± 0.084; D 0.068 ± 0.23; L -0.298 ± 0.15; R -0.34 ± 0.076; K -0.332 ± 0.31; E 0.141 ± 0.15; Y -0.252 ± 0.23; W -0.397 ± 0.16; F -0.312 ± 0.13; A -0.398 ± 0.22; P -0.032 ± 0.25; M -0.241 ± 0.29; N 0.265 ± 0.19; Q 0.085 ± 0.13; S -0.068 ± 0.053
E9: M -0.171 ± 0.059; Y -0.297 ± 0.055; T -0.105 ± 0.068; S -0.173 ± 0.057; A -0.069 ± 0.051; V -0.157 ± 0.056; F -0.399 ± 0.079; Q -0.152 ± 0.08; L -0.202 ± 0.057; P -0.178 ± 0.057; H -0.257 ± 0.098; D 0.038 ± 0.085; G -0.159 ± 0.051; R -0.005 ± 0.054; C -0.417 ± 0.063; N -0.141 ± 0.054
T7: C -0.258 ± 0.3; R -0.449 ± 0.07; W -0.708 ± 0.24; E 0.259 ± 0.14; Y -0.436 ± 0.09; L -0.206 ± 0.12; S -0.111 ± 0.13; V -0.196 ± 0.11; Q -0.295 ± 0.082; I -0.756 ± 0.43; M -0.321 ± 0.14; P -0.165 ± 0.2; G -0.155 ± 0.066; N -0.238 ± 0.42; K -0.55 ± 0.26; A 0.208 ± 0.12
I6: T -0.584 ± 0.19; D -0.759 ± 0.13; G -0.264 ± 0.049; S -0.652 ± 0.06; R -0.983 ± 0.076; M 0.144 ± 0.14; Q -0.761 ± 0.14; A -0.266 ± 0.099; N -0.708 ± 0.32; C -0.565 ± 0.1; K -0.852 ± 0.37; L -0.196 ± 0.07; Y 0.06 ± 0.089; E -0.477 ± 0.14; W -0.465 ± 0.072; V -0.248 ± 0.081; H -0.202 ± 0.29; P -0.056 ± 0.074
R3: N 0.829 ± 0.18; K 0.288 ± 0.11; G 0.194 ± 0.062; Q 0.424 ± 0.11; F -0.02 ± 0.14; A 0.119 ± 0.053; T 0.359 ± 0.089; I 0.319 ± 0.12; M 0.182 ± 0.072; P -0.004 ± 0.11; D 0.68 ± 0.12; S 0.301 ± 0.073; W -0.156 ± 0.056; L -0.008 ± 0.072; V 0.132 ± 0.067; E 0.207 ± 0.1
E12: C -0.224 ± 0.11; W -0.496 ± 0.077; T 0.164 ± 0.1; G -0.039 ± 0.058; M -0.075 ± 0.087; P -0.659 ± 0.077; F 0.083 ± 0.12; V -0.062 ± 0.062; N -0.075 ± 0.25; Q 0.033 ± 0.085; K 0.238 ± 0.12; Y -0.435 ± 0.18; H -0.307 ± 0.31; L -0.002 ± 0.07; I 0.294 ± 0.13; R 0.007 ± 0.047; A 0.01 ± 0.059; S 0.048 ± 0.053; D -0.05 ± 0.097
R1: S 0.311 ± 0.17; A 0.743 ± 0.28; T -0.054 ± 0.27; C 0.24 ± 0.25; N 0.002 ± 0.29
T4: G -0.052 ± 0.053; D 0.304 ± 0.089; P 0.037 ± 0.11; F -0.062 ± 0.13; Q -0.096 ± 0.12; V -0.179 ± 0.07; C -0.209 ± 0.09; L -0.165 ± 0.073; W -0.305 ± 0.057; K -0.408 ± 0.12; H -0.145 ± 0.079; N -0.488 ± 0.18; M -0.022 ± 0.085; Y -0.109 ± 0.15; R -0.63 ± 0.075; S -0.057 ± 0.07
Q10: P -0.869 ± 0.15; W -0.695 ± 0.068; I -0.086 ± 0.22; D 0.18 ± 0.12; T -0.587 ± 0.15; C -0.847 ± 0.2; H -0.466 ± 0.071; N -0.651 ± 0.35; S -0.603 ± 0.12; G -0.695 ± 0.089; V -0.283 ± 0.058; M -0.326 ± 0.059; K -0.524 ± 0.11; F -0.941 ± 0.24; Y -0.856 ± 0.32; E -0.641 ± 0.13
P8: G -0.504 ± 0.11; R -0.254 ± 0.091; H -0.422 ± 0.42; W -0.177 ± 0.11; Q -0.232 ± 0.19; L 0.167 ± 0.068; K -0.272 ± 0.085; T -0.452 ± 0.13; Y -0.643 ± 0.38; A 0.076 ± 0.065; D -0.107 ± 0.075; F -0.038 ± 0.17; V 0.168 ± 0.099; C -0.54 ± 0.25; I 0.043 ± 0.22; S -0.413 ± 0.15; M -0.329 ± 0.2; E 0.197 ± 0.12
